Assays:
[1] = molecular target: T1, c-erbB-2 expressed on cells (SK-OV-3, SK-BR-3) (UniProt P04626 23-1255, limits assumed); experiment: FACS, biotinylated sFv on SK-OV-3 cells
T1 construct: whole, on cells; also called native c-erbB-2 expressed on cells

[2] = molecular target: T2, c-erbB-2 ECD with a Ser-Gly-His6 C-terminal fusion (UniProt P04626 23-652); experiment: SPR (BIAcore)
T2 construct: extracellular domain; expressed from CHO cells, IMAC purified; coupled to a CM5 chip, adsorbed to polystyrene, or biotinylated and captured on avidin; also called c-erbB-2 extracellular domain; biotinylated c-erbB-2 ECD

[3] = molecular target: T2, c-erbB-2 ECD with a Ser-Gly-His6 …; experiment: SPR (BIAcore); remark: listed apart in the source
[4] = molecular target: T2, c-erbB-2 ECD with a Ser-Gly-His6 …; experiment: from SPR (BIAcore) Kd values
[5] = molecular target: T2, c-erbB-2 ECD with a Ser-Gly-His6 …; experiment: SPR (BIAcore); clone eluted with 1 µM c-erbB-2 ECD
[6] = molecular target: c-erbB-2 ECD with a Ser-Gly-His6 C-terminal fusion (UniProt P04626); experiment: SPR (BIAcore)
[7] = molecular target: c-erbB-2 ECD with a Ser-Gly-His6 C-terminal fusion (UniProt P04626); experiment: from SPR (BIAcore) Kd values

B1: C6ML3-9 (scFv)
scFv: QVQLLQSGAELKKPGESLKISCKGSGYSFTSYWIAWVRQMPGKGLEYMGLIYPGDSDTKYSPSFQGQVTISVDKSVSTAYLQWSSLKPSDSAVYFCARHDVGYCSSSNCAKWPEYFQHWGQGTLVTVSSGGGGSGGGGSGGGGSQSVLTQPPSVSAAPGQKVTISCSGSSSNIGNNYVSWYQQLPGTAPKLLIYGHTNRPAGVPDRFSGSKSGTSASLAISGFRSEDEADYYCASWDYTLSGWVFGGGTKLTVLG
notes: C6.5 with this VL CDR3; C-terminal myc and His6 tags; parent of the VH CDR3 libraries; also called C6ML3-9 (wt); wt C6ML3-9
[1]
  half life (t1/2) on the cell surface: 11 min
[2]
  kon: 610000 M⁻¹ s⁻¹
[3]
  fold increase in affinity vs wild-type sFv (C6.5): 16 fold

B2: C6-B1D3 (scFv)
chain: QVQLLQSGAELKKPGESLKISCKGSGYSFTSYWIAWVRQMPGKGLEYMGLIYPGDSDTKYSPSFQGQVTISVDKSVSTAYLQWSSLKPSDSAVYFCARHDVGYCTDRTCAKWPEWLDNWGQGTLVTVSSGGGGSGGGGSGGGGSQSVLTQPPSVSAAPGQKVTISCSGSSSNIGNNYVSWYQQLPGTAPKLLIYGHTNRPAGVPDRFSGSKSGTSASLAISGFRSEDEADYYCASWDYTLSGWVFGGGTKLTVLG
[4]
  ΔΔGI: -0.53 kcal/mol
[3]
  fold lower Kd than wt C6.5: 1230 fold

B3: C6MH3-B1 (scFv)
scFv: QVQLLQSGAELKKPGESLKISCKGSGYSFTSYWIAWVRQMPGKGLEYMGLIYPGDSDTKYSPSFQGQVTISVDKSVSTAYLQWSSLKPSDSAVYFCARHDVGYCTDRTCAKWPEYFQHWGQGTLVTVSSGGGGSGGGGSGGGGSQSVLTQPPSVSAAPGQKVTISCSGSSSNIGNNYVSWYQQLPGTAPKLLIYGHTNRPAGVPDRFSGSKSGTSASLAISGFRSEDEADYYCASWDYTLSGWVFGGGTKLTVLG
notes: C6ML3-9 with this VH CDR3; C-terminal His6; also called C6MNH3-B1
[1]
  half life (t1/2) on the cell surface: 102 min

B4: C6ML3-7 (scFv)
scFv: QVQLLQSGAELKKPGESLKISCKGSGYSFTSYWIAWVRQMPGKGLEYMGLIYPGDSDTKYSPSFQGQVTISVDKSVSTAYLQWSSLKPSDSAVYFCARHDVGYCSSSNCAKWPEYFQHWGQGTLVTVSSGGGGSGGGGSGGGGSQSVLTQPPSVSAAPGQKVTISCSGSSSNIGNNYVSWYQQLPGTAPKLLIYGHTNRPAGVPDRFSGSKSGTSASLAISGFRSEDEADYYCAAWDYAVSGWVFGGGTKLTVLG
notes: C6.5 with this VL CDR3; C-terminal myc and His6 tags
[2]
  kon: 650000 M⁻¹ s⁻¹
[3]
  fold increase in affinity vs wild-type sFv (C6.5): 6 fold

B5: C6ML3-5 (scFv)
scFv: QVQLLQSGAELKKPGESLKISCKGSGYSFTSYWIAWVRQMPGKGLEYMGLIYPGDSDTKYSPSFQGQVTISVDKSVSTAYLQWSSLKPSDSAVYFCARHDVGYCSSSNCAKWPEYFQHWGQGTLVTVSSGGGGSGGGGSGGGGSQSVLTQPPSVSAAPGQKVTISCSGSSSNIGNNYVSWYQQLPGTAPKLLIYGHTNRPAGVPDRFSGSKSGTSASLAISGFRSEDEADYYCAAWDYSLSGWVFGGGTKLTVLG
notes: as for B4
[5]
  koff: 0.0019 s⁻¹
[2]
  kon: 590000 M⁻¹ s⁻¹

B6: C6-B1L1 (scFv, part only; not given: linker and VL, part only)
scFv, part: QVQLLQSGAELKKPGSLKISCKGSGYSFTSWIAWVRQMPGKGLEYGLIYPGDSDTKYSPSQGQVTISVDKSVSTALQWSSLKPSDSAVYFARHDVGYCHDVGYCTDRTCAKWPYFQHTVS
[6]
  Kd: 0.63 nM
  Kd (C6.5)/Kd (mut): 25
  Kd (parent)/Kd (mut): 0.19
  koff: 0.00024 s⁻¹
  kon: 380000 M⁻¹ s⁻¹
[7]
  ΔΔGI: 0.43 kcal/mol

B7: C6-B47L1 (scFv, part only; not given: linker and VL, part only)
scFv, part: QVQLLQSGAELKKPGSLKISCKGSGYSFTSWIAWVRQMPGKGLEYGLIYPGDSDTKYSPSQGQVTISVDKSVSTALQWSSLKPSDSAVYFARHDVGYCHDVGYCTDRSCAKWPYFQHTVS
[6]
  Kd: 0.6 nM
  Kd (C6.5)/Kd (mut): 27
  Kd (parent)/Kd (mut): 0.18
  koff: 0.00018 s⁻¹
  kon: 300000 M⁻¹ s⁻¹
[7]
  ΔΔGI: 0.45 kcal/mol

Source: patent publication US20060287509A1 (University of California, published 2006)
